Measured values taken from PMC6072203.

Columns and labels:
[1] = target: H77 NS5A 38A (hepatitis C virus genotype 1a (H77 strain)); experiment: two-hybrid; Checkmate mammalian two-hybrid: GAL4/BD fusion (pBIND) and VP16/AD fusion (pACT) with the pGL4.3[luc2P/Gal4UAS/Hygro] reporter co-transfected into FT3-7 (Huh-7) cells; lysed at 48 h; F-Luc/R-Luc ratio; for NS5A both fusions carry the same NS5A
[2] = target: YFP-fused JFH1 NS5A 148A of HJ3-5/NS5A^YFP (hepatitis C virus genotype 2a (JFH1 strain)); experiment: co-IP; GFP immunoprecipitation (anti-GFP magnetic beads, 1 h, 4 C) of NS5A^YFP from lysates (0.5% Triton X-100, 10 mM Tris-HCl pH 7.5, 150 mM NaCl) of cells electroporated with HJ3-5/NS5A^YFP RNA; core detected by western blot; ratio of co-IP core per IP NS5A^YFP
[3] = target: YFP-fused JFH1 NS5A 37A of HJ3-5/NS5A^YFP (hepatitis C virus genotype 2a (JFH1 strain)); experiment: as above
[4] = target: YFP-fused JFH1 NS5A 38A of HJ3-5/NS5A^YFP (hepatitis C virus genotype 2a (JFH1 strain)); experiment: as above
[5] = target: JFH1 NS5A 36A (hepatitis C virus genotype 2a (JFH1 strain)); experiment: two-hybrid; Checkmate mammalian two-hybrid: GAL4/BD fusion (pBIND) and VP16/AD fusion (pACT) with the pGL4.3[luc2P/Gal4UAS/Hygro] reporter co-transfected into FT3-7 (Huh-7) cells; lysed at 48 h; F-Luc/R-Luc ratio; for NS5A both fusions carry the same NS5A
[6] = target: H77 NS5A 36A/37A/38A (mutation group a); experiment: checkmate mammalian two-hybrid assay; settings: Huh-7 cells; GAL4/BD-fused and VP16/AD-fused NS5A both carry the mutations; parent: est. 100; read off a plot
[7] = target: H77 NS5A 36A/37A/38A/112A/148A (both mutation groups); experiment: checkmate mammalian two-hybrid assay; settings: Huh-7 cells; GAL4/BD-fused and VP16/AD-fused NS5A both carry the mutations; parent: est. 100; read off a plot
H77 NS5A 37A = experiment: mammalian two-hybrid assay; settings: Huh-7 cells; GAL4/BD-fused and VP16/AD-fused NS5A both carry the mutation; parent: est. 100; read off a plot
H77 NS5A 38A = experiment: mammalian two-hybrid assay; settings: Huh-7 cells; GAL4/BD-fused and VP16/AD-fused NS5A both carry the mutation; parent: est. 100; read off a plot
H77 NS5A 112A = H77 NS5A 112A (UniProt P27958); experiment: mammalian two-hybrid assay; settings: Huh-7 cells; GAL4/BD-fused and VP16/AD-fused NS5A both carry the mutation; parent: est. 100; read off a plot
[8] = target: H77 NS5A 112A/148A (mutation group b); experiment: checkmate mammalian two-hybrid assay; settings: Huh-7 cells; GAL4/BD-fused and VP16/AD-fused NS5A both carry the mutations; parent: est. 100; read off a plot
H77 NS5A 148A = experiment: mammalian two-hybrid assay; settings: Huh-7 cells; GAL4/BD-fused and VP16/AD-fused NS5A both carry the mutation; parent: est. 100; read off a plot
JFH1 NS5A 36A = experiment: checkmate mammalian two-hybrid assay; settings: Huh-7 cells; GAL4/BD-fused and VP16/AD-fused NS5A both carry the mutation; parent: est. 100; read off a plot
[9] = target: JFH1 NS5A 36A/37A/38A (mutation group a); experiment: checkmate mammalian two-hybrid assay; settings: Huh-7 cells; GAL4/BD-fused and VP16/AD-fused NS5A both carry the mutations; parent: est. 100; read off a plot
[10] = target: JFH1 NS5A 36A/37A/38A/112A/148A (both mutation groups combined); experiment: checkmate mammalian two-hybrid assay; settings: Huh-7 cells; GAL4/BD-fused and VP16/AD-fused NS5A both carry the mutations; parent: est. 100; read off a plot
JFH1 NS5A 37A = experiment: checkmate mammalian two-hybrid assay; settings: Huh-7 cells; GAL4/BD-fused and VP16/AD-fused NS5A both carry the mutation; parent: est. 100; read off a plot
JFH1 NS5A 38A = experiment: checkmate mammalian two-hybrid assay; settings: Huh-7 cells; GAL4/BD-fused and VP16/AD-fused NS5A both carry the mutation; parent: est. 100; read off a plot
JFH1 NS5A 112A = JFH1 NS5A 112A (UniProt Q99IB8); experiment: checkmate mammalian two-hybrid assay; settings: Huh-7 cells; GAL4/BD-fused and VP16/AD-fused NS5A both carry the mutation; parent: est. 100; read off a plot
[11] = target: JFH1 NS5A 112A/148A (mutation group b); experiment: checkmate mammalian two-hybrid assay; settings: Huh-7 cells; GAL4/BD-fused and VP16/AD-fused NS5A both carry the mutations; parent: est. 100; read off a plot

For H77 NS5A 38A (natural protein), which percent above wt NS5A self-interaction (F-Luc/R-Luc) [1] is on record?
Its percent above wt NS5A self-interaction (F-Luc/R-Luc) is 30 % above wt.

How did the NS5A and core co-IP efficiency against wt (% lower than wt) [2] turn out when “HCV core protein (H77 core of the chimera HJ3-5) (natural protein)” was run?
The NS5A and core co-IP efficiency against wt (% lower than wt) was 50.

What about the NS5A and core co-IP efficiency against wt (% lower than wt) [3] of the same substance?
Its NS5A and core co-IP efficiency against wt (% lower than wt) is 50.

What about the NS5A and core co-IP efficiency against wt (% lower than wt) [4] of the same substance?
Its NS5A and core co-IP efficiency against wt (% lower than wt) is 50.

How did the percent of wt NS5A self-interaction (F-Luc/R-Luc) [5] turn out when JFH1 NS5A 36A (natural protein) was run?
Its percent of wt NS5A self-interaction (F-Luc/R-Luc) is 20 % of wt.

For “wild-type full-length NS5A of gt1a HCV H77 (from UniProt P27958) 36A; 37A; 38A”, which percent of parent [6] is on record?
Its percent of parent is 17 % wt.

How did the percent of parent [7] turn out when “wild-type full-length NS5A of gt1a HCV H77 (from UniProt P27958) 36A; 37A; 38A; 112A; 148A” was run?
Its percent of parent is 3.3 % wt.

“wild-type full-length NS5A of gt1a HCV H77 (from UniProt P27958) 37A” was tested. Which percent of parent (H77 NS5A 37A) did it give?
The percent of parent was 45 % wt.

Which percent of parent (H77 NS5A 38A) does the source give for “wild-type full-length NS5A of gt1a HCV H77 (from UniProt P27958) 38A” here?
Its percent of parent is 130 % wt.

How did the percent of parent (H77 NS5A 112A) turn out when “wild-type full-length NS5A of gt1a HCV H77 (from UniProt P27958) 112A” was run?
Its percent of parent is 27 % wt.

Which percent of parent [8] does the source give for “wild-type full-length NS5A of gt1a HCV H77 (from UniProt P27958) 112A; 148A” here?
Its percent of parent is 11 % wt.

“wild-type full-length NS5A of gt1a HCV H77 (from UniProt P27958) 148A” was tested. Which percent of parent (H77 NS5A 148A) did it give?
The percent of parent was 13 % wt.

“wild-type full-length NS5A of gt2a HCV JFH1 (from UniProt Q99IB8) 36A” was tested. Which percent of parent (JFH1 NS5A 36A) did it give?
The percent of parent was 22 % wt.

How did the percent of parent [9] turn out when “wild-type full-length NS5A of gt2a HCV JFH1 (from UniProt Q99IB8) 36A; 37A; 38A” was run?
Its percent of parent is 11 % wt.

For “wild-type full-length NS5A of gt2a HCV JFH1 (from UniProt Q99IB8) 36A; 37A; 38A; 112A; 148A”, which percent of parent [10] is on record?
Its percent of parent is 2.5 % wt.

How did the percent of parent (JFH1 NS5A 37A) turn out when “wild-type full-length NS5A of gt2a HCV JFH1 (from UniProt Q99IB8) 37A” was run?
Its percent of parent is 78 % wt.

With “wild-type full-length NS5A of gt2a HCV JFH1 (from UniProt Q99IB8) 38A” as the substance, how does the percent of parent (JFH1 NS5A 38A) read?
The percent of parent was 77 % wt.

For “wild-type full-length NS5A of gt2a HCV JFH1 (from UniProt Q99IB8) 112A”, which percent of parent (JFH1 NS5A 112A) is on record?
Its percent of parent is 110 % wt.

For “wild-type full-length NS5A of gt2a HCV JFH1 (from UniProt Q99IB8) 112A; 148A”, which percent of parent [11] is on record?
The percent of parent was 2.7 % wt.
